The labels stand for the following.
B1: Microtubule-associated tumor suppressor candidate 2 (Homo sapiens), Q5JR59-3 (parent)
chain: MGHCCCKPYNCLQCLDKTNESALVKEKELSIELANIRDEVAFHTAKCEKLQKEKEELERRFEDEVKRLGWQQQAELQELEERLQLQFEAEMARLQEEHGDQLLSIRCQHQEQVEDLTASHDAALLEMENNHTVAITILQDDHDHKVQELMSTHELEKKELEENFEKLRLSLQDQVDTLTFQSQSLRDRARRFEEALRKNTEEQLEIALAPYQHLEEDMKSLKQVLEMKNQQIHEQEKKILELEKLAEKNIILEEKIQVLQQQNEDLKARIDQNTVVTRQLSEENANLQEYVEKETQEKKRLSRTNEELLWKLQTGDPTSPIKLSPTSPVYRGSSSGPSSPARVSTTPR
partner: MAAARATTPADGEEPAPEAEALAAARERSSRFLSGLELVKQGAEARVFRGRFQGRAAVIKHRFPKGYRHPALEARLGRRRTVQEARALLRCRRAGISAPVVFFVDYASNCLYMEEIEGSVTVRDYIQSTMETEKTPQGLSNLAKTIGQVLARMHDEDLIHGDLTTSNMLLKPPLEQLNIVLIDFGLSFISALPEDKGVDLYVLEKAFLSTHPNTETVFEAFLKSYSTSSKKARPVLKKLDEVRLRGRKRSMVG
B2: Ligand of Numb protein X 2 (Homo sapiens), Q8N448 (parent)
chain: MGTTSDEMVSVEQTSSSSLNPLCFECGQQHWTRENHLYNYQNEVDDDLVCHICLQPLLQPLDTPCGHTFCYKCLRNFLQEKDFCPLDRKRLHFKLCKKSSILVHKLLDKLLVLCPFSSVCKDVMQRCDLEAHLKNRCPGASHRRVALERRKTSRTQAEIENENGPTLLDPAGTLSPEADCLGTGAVPVERHLTSASLSTWSEEPGLDNPAFEESAGADTTQQPLSLPEGEITTIEIHRSNPYIQLGISIVGGNETPLINIVIQEVYRDGVIARDGRLLAGDQILQVNNYNISNVSHNYARAVLSQPCNTLHLTVLRERRFGNRAHNHSDSNSPREEIFQVALHKRDSGEQLGIKLVRRTDEPGVFILDLLEGGLAAQDGRLSSNDRVLAINGHDLKYGTPELAAQIIQASGERVNLTIARPGKPQPGNTIREAGNHSSSSQHHTPPPYYSRPSSHKDLTQCVTCQEKHITVKKEPHESLGMTVAGGRGSKSGELPIFVTSVPPHGCLARDGRIKRGDVLLNINGIDLTNLSHSEAVAMLKASAASPAVALKALEVQIVEEATQNAEEQPSTFSENEYDASWSPSWVMWLGLPSTLHSCHDIVLRRSYLGSWGFSIVGGYEENHTNQPFFIKTIVLGTPAYYDGRLKCGDMIVAVNGLSTVGMSHSALVPMLKEQRNKVTLTVICWPGSLV
partner: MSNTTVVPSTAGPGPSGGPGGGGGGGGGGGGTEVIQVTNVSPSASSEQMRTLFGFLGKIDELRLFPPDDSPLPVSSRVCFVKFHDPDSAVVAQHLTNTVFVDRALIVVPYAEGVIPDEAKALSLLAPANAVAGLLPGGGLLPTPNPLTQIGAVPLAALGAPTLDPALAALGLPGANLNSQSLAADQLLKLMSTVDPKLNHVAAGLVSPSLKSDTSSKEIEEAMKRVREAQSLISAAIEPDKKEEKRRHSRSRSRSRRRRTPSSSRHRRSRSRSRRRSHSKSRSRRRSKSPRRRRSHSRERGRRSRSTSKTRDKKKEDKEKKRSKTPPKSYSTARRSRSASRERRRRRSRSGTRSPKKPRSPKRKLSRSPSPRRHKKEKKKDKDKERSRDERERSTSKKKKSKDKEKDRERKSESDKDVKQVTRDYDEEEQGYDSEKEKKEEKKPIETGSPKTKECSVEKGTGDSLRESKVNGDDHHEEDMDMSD
B3: Fructose-1,6-bisphosphatase 1 (Homo sapiens), P09467 (parent)
chain: MADQAPFDTDVNTLTRFVMEEGRKARGTGELTQLLNSLCTAVKAISSAVRKAGIAHLYGIAGSTNVTGDQVKKLDVLSNDLVMNMLKSSFATCVLVSEEDKHAIIVEPEKRGKYVVCFDPLDGSSNIDCLVSVGTIFGIYRKKSTDEPSEKDALQPGRNLVAAGYALYGSATMLVLAMDCGVNCFMLDPAIGEFILVDKDVKIKKKGKIYSLNEGYARDFDPAVTEYIQRKKFPPDNSAPYGARYVGSMVADVHRTLVYGGIFLYPANKKSPNGKLRLLYECNPMAYVMEKAGGMATTGKEAVLDVIPTDIHQRAPVILGSPDDVLEFLKVYEKHSAQ
B4: Keratin, type II cytoskeletal 79 (Homo sapiens), Q5XKE5 (parent)
chain: MRSSVSRQTYSTKGGFSSNSASGGSGSQARTSFSSVTVSRSSGSGGGAHCGPGTGGFGSRSLYNLGGHKSISVSVAGGALLGRALGGFGFGSRAFMGQGAGRQTFGPACPPGGIQEVTVNQSLLTPLHVEIDPEIQRVRTQEREQIKTLNNKFASFIDKVRFLEQQNKVLETKWALLQEQGQNLGVTRNNLEPLFEAYLGSMRSTLDRLQSERGRLDSELRNVQDLVEDFKNKYEDEINKHTAAENEFVVLKKDVDAAYMGRMDLHGKVGTLTQEIDFLQQLYEMELSQVQTHVSNTNVVLSMDNNRNLDLDSIIAEVKAQYELIAQRSRAEAEAWYQTKYEELQVTAGKHGDNLRDTKNEIAELTRTIQRLQGEADAAKKQCQQLQTAIAEAEQRGELALKDAQKKLGDLDVALHQAKEDLTRLLRDYQELMNVKLALDVEIATYRKLLESEESRMSGECPSAVSISVTGNSTTVCGGGAASFGGGISLGGSGGATKGGFSTNVGYSTVKGGPVSAGTSILRKTTTVKTSSQRY
partner: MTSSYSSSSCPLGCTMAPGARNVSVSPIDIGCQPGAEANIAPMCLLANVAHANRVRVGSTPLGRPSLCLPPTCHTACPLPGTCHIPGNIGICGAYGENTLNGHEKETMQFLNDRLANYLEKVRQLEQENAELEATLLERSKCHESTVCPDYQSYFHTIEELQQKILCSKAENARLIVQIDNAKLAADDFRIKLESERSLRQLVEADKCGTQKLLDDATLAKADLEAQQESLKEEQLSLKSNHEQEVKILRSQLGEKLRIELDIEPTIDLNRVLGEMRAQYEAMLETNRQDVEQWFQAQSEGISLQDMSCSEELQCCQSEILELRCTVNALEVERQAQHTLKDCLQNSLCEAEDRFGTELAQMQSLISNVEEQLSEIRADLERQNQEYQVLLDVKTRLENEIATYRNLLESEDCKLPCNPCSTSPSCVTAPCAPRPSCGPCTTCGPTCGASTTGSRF

In one assay the parent is B1. Particulars: with prpk_human TP53RK.
A89V: the “effect of a mutation on the interaction” value is reported as “with no effect”.

In a further assay the parent is B2. Particulars: with srs11_human SRSF11, Q05519.
Regarding S141A, the “effect of a mutation on the interaction” value is on record as “with no effect”. Regarding Y266C, the “effect of a mutation on the interaction” value is reported as “disrupting interaction strength”.

With S198P, the “effect of a mutation on the interaction” value is “with no effect”.

In the next assay the parent is B3. As to conditions: with fxr2_human FXR2, P51116.
With G260R, the “effect of a mutation on the interaction” value is listed as “disrupting interaction strength”.

The next assay covers variants of B4. Particulars: with krt38_human KRT38, O76015.
Regarding G86E, the “effect of a mutation on the interaction” value is reported as “with no effect”. The same measure, in the same setting: next, R161Q: “with no effect”. R213W: the “effect of a mutation on the interaction” value is on record as “disrupting interaction strength”. Still for that read-out and setting: next, D217Y: “with no effect”; H266R: “with no effect”; R30C: “with no effect”.
